In patent publication US20210009693A1 (MABSPACE BIOSCIENCES SUZHOU, published 2021):
Where a chain is given by its changes, count along the chain named. Read-outs that look alike come from different tables or passages of the source. Blank lines part the entries; values can stand above or below the binder they belong to.

Experiments:
[1] = molecular target: hPD-L1 (antigen of the Biacore assay) (human, UniProt Q9NZQ7 19-238, limits assumed); assay: SPR (Biacore), antibody captured on anti-human Fc, antigen in flow
Experimental: A CM5 sensor chip was activated in each flow cell by 7-min injection (10 μl/min) of freshly prepared 1:1 50 mM N-hydroxysuccinimide (NHS): 200 mM 1-ethyl-3-(3-dimethylaminopropyl)-carbodiimide (EDC). Then anti-human Fc antibody (GE Healthcare) in a concentration of 10 μg/ml in 10 mM sodium acetate buffer PH 5.0 was injected onto the activated chip at 10 μl/min (HBS-EP running buffer: 10 mM HEPES, 150 mM NaCl, 3.4 mM EDTA, 0.005% surfactant P20, pH 7.4). The remaining active coupling sites were blocked by 7 min injection of 1M ethanolamine at 10 μl/min. The immobilization level of each flow cell is ˜9000RU. Antibodies were captured in FC2 by anti-human Fe IgG (GE Healthcare) to 200˜300RU. FC1 was used as the reference cell. Antigen was injected at varying concentrations after capture of antibody. The association time for antibody binding antigen is 180s. Surface Regeneration condition is 120s at 10 μl/min in Gly pH1.5. The signals with captured antibody subtracted from those without captured antibody were calculated with Biacore X100 evaluation software ver. 2.0 (Biacore).

[2] = molecular target: T1, Human PD-L1/CD274 with C-Fc Tag (hPD-L1-Fc) (human, UniProt Q9NZQ7 19-238); assay: blocking ELISA on coated hPD-L1-Fc; blocked ligand: biotinylated hPD-1-N297A
T1 construct: range 19-238; ACRO Biosystem PD1-H5258, made in HEK293; also called human PD-L1-Fc; not shown: Fc fragment of human IgG1 at C-terminus
Experimental: High-binding clear polystyrene 96 well plates (Nunc) were coated with 100 μl/well of coating solution consisting of 1 μg/ml hPD-L1-Fc overnight at 4° C. Then the plates were washed once on an automatic plate washer using washing buffer (PBS+0.1% Tween 20 (Sigma)). 200 μl of blocking buffer (PBS+1% BSA+1% normal goat serum+0.05% Tween-20) was added to each well and incubated 2 hours at room temp. […] The plates were then washed 3 times using the method described above. […] After the plates were washed 3 times, 100 μl/well of a solution of 1:5000 diluted HRP conjugated Neutravidin antibody (Pierce) in dilution buffer was then added to each well of the plate. After that the ELISA plates were allowed to incubate for 60 min at RT, then the plates were washed 3 times with 250 μl/well washing buffer. Finally, 100 μl/well of TMB was added to each well and the reaction was terminated using 0.64M H₂SO₄. The plates were read on a Thermo Multiscan FC at 450 nM (see FIG. 18A to 18D).

[3] = molecular target: T2, Recombinant Human PD-L1/CD274 Protein (hPD-L1-his) (human, UniProt Q9NZQ7 19-238); assay: ELISA on coated hPD-L1-his
T2 construct: range 19-238; ACRO Biosystem PD1-H5229, made in HEK293; also called human PD-L1-his; hPD-L-his

[4] = molecular target: T2, Recombinant Human PD-L1/CD274 Protein …; assay: ELISA on coated hPD-L1-his; remark: listed apart in the source
hPD-L2-Fc = molecular target: T3, hPD-L2-Fc (human, UniProt Q9BQ51 20-219); assay: ELISA, plate coated with hPD-L2-Fc
T3 construct: Acrobiosystems PD2-H5251; also called human PD-L2 protein; not shown: Fc tag
T3 sequence (looked up): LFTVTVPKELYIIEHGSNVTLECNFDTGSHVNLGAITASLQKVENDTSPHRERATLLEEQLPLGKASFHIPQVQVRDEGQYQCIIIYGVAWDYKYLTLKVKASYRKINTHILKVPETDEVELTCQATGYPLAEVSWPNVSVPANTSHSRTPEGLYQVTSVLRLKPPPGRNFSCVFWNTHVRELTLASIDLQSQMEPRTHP
Experimental: Briefly, high-binding clear polystyrene 96 well plates (Nunc) were coated with 100 μl/well of a 0.5 μg/ml human PD-L1-Fc (Acrobiosystems, Cat #PD1-H5258) or 100 μl/well of a 1 μg/ml hPD-L2-Fc (Acrobiosystems, Cat #PD2-H5251), respectively, in high pH coating buffer (0.16% Na2CO3+0.3% NaHCO₃, pH 9.8) and incubated overnight at 4° C. Then the plates were washed once on an automatic plate washer using washing buffer (PBS+0.1% Tween 20 (Amresco)). 200 μl of blocking buffer (PBS+1% BSA+1% normal goat serum+0.05% Tween-20) was added to each well and incubated for 2 hours at room temp. Then add 100 μl 2 μg/ml purified PD-L1 antibodies with dilution buffer (PBS+1% BSA+1% normal goat serum+0.01% Tween-20) and incubate for 1 hour at RT. The plates were then washed 3 times with washing buffer. 100 μl/well of a solution of HRP conjugated goat anti-mouse IgG antibody (1:20000, Abcam) in dilution buffer was then added to each well of the plate. After that the ELISA plates were allowed to incubate for 60 min at RT then the plates were washed 3 times with 250 μl/well washing buffer. Finally, 100 μl/well of TMB was added to each well for 15 min and the reaction was terminated using 50 ul/well of 0.16 M/L sulfuric acid. The plates were read on a Thermo Multiscan FC at 450 nM (see FIG. 6G).

[5] = molecular target: T4, Recombinant Mouse PD-L1/CD274 Protein (mPD-L1-his) (mouse, UniProt Q9EP73 19-238); assay: ELISA, 20 ug/ml antibody on coated mouse PD-L1 (his-tagged per text, mPD-L1-Fc per sheet title)
T4 construct: range 19-238; ACRO Biosystem PD1-M5220; also called mouse PD-L1-his
Experimental: High-binding clear polystyrene 96 well plates (Nunc) were coated with 100 μl/well of 1 μg/ml mouse PD-L1-his in high pH coating buffer and incubated overnight at 4° C. Then plates were washed once on an automatic plate washer using washing buffer (PBS+0.1% Tween 20 (Sigma)). 200 μl of blocking buffer (PBS+1% BSA+1% normal goat serum+0.05% Tween-20) was added to each well and incubated for 2 hours at room temp. Then add 20 μg/ml purified hybridoma mouse antibodies in dilution buffer (PBS+1% BSA+1% normal goat serum+0.01% Tween-20) and incubate for 1 hour at RT. The plates were then washed 3 times with 250 μl/well washing buffer. 100 μl/well of a solution of HRP conjugated goat anti-mouse Fc antibody (Abcam) in dilution buffer was then added to each well of the plate. After that the ELISA plates were allowed to incubate for 60 min at RT then plates were washed 3 times with 250 μl/well washing buffer. Finally, 100 μl/well of TMB was added to each well and the reaction was terminated using 0.64M H₂SO₄. The plates were read on a Thermo Multiscan FC at 450 nM (see FIG. 6F).

[6] = molecular target: T5, wild type human PD-L1-Fc protein (SEQ ID NO: 107) (human); assay: ELISA on captured PD-L1-Fc, as in Example 18A
T5 construct: Extracellular human PD-L1 (amino acid 19-238) with Fc fragment of human IgG1, expressed in 293T cells and used as culture supernatant; also called WT PD-L1; wild-type PD-L1

[7] = molecular target: T6, human PD-L1-Fc mutant E58A (human); assay: ELISA on captured PD-L1-Fc, as in Example 18A
T6 construct: Position 58 counts on native human PD-L1 (NP_054862.1); also called E58A mutant
T6 sequence (chain, as listed by the source E58A E58A limits assumed): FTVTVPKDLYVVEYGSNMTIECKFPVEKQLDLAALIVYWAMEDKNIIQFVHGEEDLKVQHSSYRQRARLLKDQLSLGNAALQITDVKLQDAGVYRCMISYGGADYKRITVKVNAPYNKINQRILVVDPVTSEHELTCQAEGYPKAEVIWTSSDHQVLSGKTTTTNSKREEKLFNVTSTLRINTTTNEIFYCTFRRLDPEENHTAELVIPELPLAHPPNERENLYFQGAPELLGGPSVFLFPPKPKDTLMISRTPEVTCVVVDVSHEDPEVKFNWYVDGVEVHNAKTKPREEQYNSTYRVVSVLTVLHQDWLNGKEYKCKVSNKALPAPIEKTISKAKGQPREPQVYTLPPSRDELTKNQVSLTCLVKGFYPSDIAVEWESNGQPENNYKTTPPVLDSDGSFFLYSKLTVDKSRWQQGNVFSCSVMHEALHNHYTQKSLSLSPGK

T2 sequence (Q9NZQ7 other isoform, or with tags, fused parts or gaps limits assumed): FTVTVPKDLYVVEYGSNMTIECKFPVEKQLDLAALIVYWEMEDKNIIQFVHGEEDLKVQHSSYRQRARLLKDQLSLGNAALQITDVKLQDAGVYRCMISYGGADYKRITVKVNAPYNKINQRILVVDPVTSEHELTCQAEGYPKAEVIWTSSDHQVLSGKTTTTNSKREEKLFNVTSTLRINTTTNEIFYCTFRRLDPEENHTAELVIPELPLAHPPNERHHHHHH
T5 sequence (chain, as listed by the source limits assumed): as the sequence (chain, as listed by the source E58A E58A limits assumed) above, with A40E counted along it
hPD-L1 (antigen of the Biacore assay), sequence (Q9NZQ7 19-238 limits assumed): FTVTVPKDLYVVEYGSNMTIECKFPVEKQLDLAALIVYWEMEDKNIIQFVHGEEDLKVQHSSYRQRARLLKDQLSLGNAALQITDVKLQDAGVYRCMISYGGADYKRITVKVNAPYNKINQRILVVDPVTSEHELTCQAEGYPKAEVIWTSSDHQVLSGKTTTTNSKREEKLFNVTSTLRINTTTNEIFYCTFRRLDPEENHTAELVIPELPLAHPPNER
T1 sequence (Q9NZQ7 19-238 limits assumed): as above
T4 sequence (Q9EP73 other isoform, or with tags, fused parts or gaps limits assumed): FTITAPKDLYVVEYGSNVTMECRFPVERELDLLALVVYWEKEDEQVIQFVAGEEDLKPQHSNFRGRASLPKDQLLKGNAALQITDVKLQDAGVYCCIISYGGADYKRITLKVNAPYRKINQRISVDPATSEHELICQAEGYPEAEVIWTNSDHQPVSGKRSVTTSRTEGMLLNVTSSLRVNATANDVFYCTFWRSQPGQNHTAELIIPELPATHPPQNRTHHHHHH

Kd [1]: 0.0113 µM
koff [1]: 0.00148 s⁻¹
kon [1]: 132000 M⁻¹ s⁻¹
IC50 (read off the curve) [2]: ~0.03 mg/L
B1: 4B6-H4L3 (antibody, V domains shown)
VH: QVQLVQSGAEVKKPGASVKVSCKASGYVFTDYYMNWVRQAPGQGLEWIGDINPNNGGTSYNQKFQGRVTVTVDTSIRTAYMELSRLRSDDTAVYYCVKWGDGPFAYWGQGTLVTVSS
VL: DIQMTQSQSSLSASVGDRVTITCQASQNVGAAVAWYQQKPGKAPKLLIYSASNRYTGVPSRFSGSGSGTDFTLTISSMQPEDIATYFCQQYSNYPTFGSGTKLGIK
notes: Humanized; also called humanized 4B6 H4L3

IC50 (read off the curve) [2]: ~0.04 mg/L
B2: 4B6-H4L4 (antibody, V domains shown)
VH: B1 VH
VL: B1 VL with Q8P, R54L, M78L
notes: produced in 293 cells; light chain constant region not described; also called humanized 4B6 H4L4

EC50 (read off the curve) [3]: ~0.002 mg/L
IC50 (read off the curve) [2]: ~0.04 mg/L
B3: 23F11-H4L6 (antibody, V domains shown)
VH: QVQLVQSGAEVKKPGASVKLSCKASGYIFTTYWMHWVKQRPGQGLEWIGMIQPNSGGTKYNEKFKKKATLTVDKSISTAYMELSRLTSDDTAVYYCARGAGTVDYFDYWGQGSTLTVSS
VL: DIVLTQSPASLAVSVGQRATITCRASESVDIYGNSFMHWYQQKPGQPPKLLIYRASNLESGIPARFSGSGSRTDFTLTINPVEANDTATYYCHQSTEDPYTFGGGTKLEIK
notes: produced in 293 cells; light chain constant region not described; also called humanized 23F11 H4L6

EC50 (read off the curve) [4]: ~0.002 mg/L
Kd [1]: 0.0741 µM
koff [1]: 0.0542 s⁻¹
kon [1]: 732000 M⁻¹ s⁻¹
IC50 (read off the curve) [2]: ~0.07 mg/L
B4: 23A11-H3L3 (antibody, V domains shown)
VH: B3 VH with Q1L, M34I, E62D, K63Q, K66N, K67R, S113T, T116S, V117I
VL: B3 VL with P47S, T96N, E97D, I110T
notes: Humanized; also called humanized 23A11 H3L3

binding result (hPD-L2-Fc): no binding (tested: 2 ug/ml)
binding result [5]: no binding (tested: 20 ug/ml)
B5: 23A11 (antibody, V domains shown)
VH: LVQLQQPGAELVKPGASVKLSCKASGYIFTTYWIHWVKQRPGQGLEWIGMIQPNSGGTKYNDQFKNRATLTVDKSSTTASMQLSGLTSEDSAVYYCARGAGTVDYFDYWGQGTTLSISS
VL: B3 VL with A12T, V15L, T22S, P47S, N85D, T87V, T96N, E97D, I110T
notes: also called mouse monoclonal antibody 23A11; clone 23A11

EC50 (read off the curve) [3]: ~0.002 mg/L
Kd [1]: 0.103 µM
koff [1]: 0.0448 s⁻¹
kon [1]: 435000 M⁻¹ s⁻¹
IC50 (read off the curve) [2]: ~0.04 mg/L
B6: 23F11-H6L4 (antibody, V domains shown)
VH: B3 VH with L20V, K38R, R40A, K74T, T87R
VL: B3 VL with H93Q
notes: Humanized; also called humanized 23F11 H6L4

EC50 (read off the curve) [4]: ~0.002 mg/L
IC50 (read off the curve) [2]: ~0.05 mg/L
B7: 23A11-H5L3 (antibody, V domains shown)
VH: LVQLVQSGAEVKKPGASVKVSCKASGYIFTTYWIHWVRQAPGQGLEWIGMIQPNSGGTKYNDQFKNRVTLTVDTSISTAYMELSRLRSDDTAVYYCARGAGTVDYFDYWGQGTTLSISS
VL: B3 VL with P47S, T96N, E97D, I110T
notes: produced in 293 cells; also called humanized 23A11 H5L3

EC50 (read off the curve) [4]: ~0.002 mg/L
IC50 (read off the curve) [2]: ~0.1 mg/L
B8: 23A11-H5L5 (antibody, V domains shown)
VH: B7 VH
VL: B3 VL with P47A, H93Q, T96N, E97D, I110T
notes: produced in 293 cells; also called humanized 23A11 H5L5

EC50 (read off the curve) [3]: ~0.004 mg/L
IC50 (read off the curve) [2]: ~0.05 mg/L
B9: 23F11-H6L6 (antibody, V domains shown)
VH: B3 VH with L20V, K38R, R40A, K74T, T87R
VL: B3 VL
notes: produced in 293 cells; light chain constant region not described; also called humanized 23F11 H6L6

Mean OD450 [6]: 1.45 OD450
OD450 nM of sample-1 [6]: 1.56 OD450
OD450 nM of sample-2 [6]: 1.34 OD450
% of binding of Ab to E58A mutant vs. that to WT PD-L1 [7]: 117%
Mean OD450 [7]: 1.7 OD450
OD450 nM of sample-1 [7]: 1.52 OD450
OD450 nM of sample-2 [7]: 1.88 OD450
binding result [5]: binds
B10: 18G4 (antibody, V domains shown)
VH: QVQLQQPGTALVKPGASVKLSCKASGYTFSSYYIHWVKQRPGQGLEWIGNINPFNGGSIYNEKFKNKASLTVDTSSNTAYMQLSSLTSEDSAVYYCARWHFDYWGQGTSLTVSS
VL: DIVMTQSPSSLAVTAGEKVTLKCKSSQSLLWSGNQNNYLSWYQQKQGQPPKLLIYGASIRESWVPDRFTGSGSGTDFTLTIGNVSAEDLAVYYCQHNHGSFLPYTFGGGTRLEIK
notes: Mouse monoclonal from hybridoma; also called mouse monoclonal antibody 18G4

Kd [1]: 0.0113 µM
koff [1]: 0.00515 s⁻¹
kon [1]: 450000 M⁻¹ s⁻¹
B11: 18G4-chimeric (antibody, V domains shown)
VH: B10 VH
VL: B10 VL
notes: Mouse variable regions fused to a human IgG1 constant region
